B1: Twister Ribozyme (parent)
chain: AACACUGCCAAUGCCGGUCCCAAGCCCGGAUAAAAGUGGAGGGGGCGG

Variants of: B1
Experiment: self-cleavage, relative activity (ratio to wild type); higher = more cleavage; co-transcriptional
AACACUGCCAAUGCCGGGCCCAAGCCCGGCUAAAAGUGGAGGGGGCGG [U18G A30C] showed a self-cleavage of 0.14.
With AACACUGCCAAUGCCGGUCCCAAGCCCGAAAAAAAGUGGAGGGGGCGG [G29A U31A] the self-cleavage was 1.17.
AUCACUGCCAAUGCCGGUCCCAAGCCCGGAUCAAAGUGGAGGGGGCGG [A2U A32C] gave a self-cleavage of 0.581.
AACUCUGCCAAUGCCGGUCCCAAGGCCGGAUAAAAGUGGAGGGGGCGG [A4U C25G] showed a self-cleavage of 0.0782.
Work on AACACUGCCAAUGCCGGUCCCAAGCCCGGAUAAAAGUGGAGGGGGGAG [C46G G47A] yielded a self-cleavage of 0.818.
AACACUGCAAAUGCCGGUCCCAAGCCCGGAUAAAAGUGGAGGUGGCGG [C9A G43U] gave a self-cleavage of 0.149.
In the case of AACACUGCCAAUGUCGGUCCCAAGCCCGGAUAAAAGAGGAGGGGGCGG [C14U U37A], the self-cleavage is reported as 0.83.
AACACUGCCAAUGCCGGUCCCAAGCCCGGAUAAAAAUGGAGGGGGCGA [G36A G48A] gave a self-cleavage of 0.639.
Work on AACACUGCCAAUGCCGGUCCCAAGCCCGGGUAAAAGUGGAGGGGGCGG [A30G] yielded a self-cleavage of 0.952.
AACACUGCCAACGCCGGUCCCAAGCCCGGAUAUAAGUGGAGGGGGCGG [U12C A33U] gave a self-cleavage of 1.01.
AACACUGCCAAUGCCAGUCCUAAGCCCGGAUAAAAGUGGAGGGGGCGG [G16A C21U] showed a self-cleavage of 0.0697.
For UACACUGCCAAUGCCGGUCCCAAGCCCGGAUAAAAGCGGAGGGGGCGG [A1U U37C], the self-cleavage was 0.0822.
AACACUGCCAAUGCCGGUCCCAAGCCCGGAUAAAAGUGGAGUGCGCGG [G42U G44C] showed a self-cleavage of 0.202.
With AACACUGUCAAUGCCGGUGCCAAGCCCGGAUAAAAGUGGAGGGGGCGG [C8U C19G] the self-cleavage was 0.0901.
Work on ACCACUGCCAAUGCCGGUCCCAAGCCCGGAUAAAAGAGGAGGGGGCGG [A2C U37A] yielded a self-cleavage of 0.0604.
In the case of AACACUGACAAUGCCGGUCGCAAGCCCGGAUAAAAGUGGAGGGGGCGG [C8A C20G], the self-cleavage is reported as 0.0882.
For AACACUGCCAUUGCCGGUACCAAGCCCGGAUAAAAGUGGAGGGGGCGG [A11U C19A], the self-cleavage was 0.386.
Variant AACACUGCCAAUGCCGGUUCCAAGCCCGGCUAAAAGUGGAGGGGGCGG [C19U A30C] has a self-cleavage of 0.591.
In the case of AACACUGCCAAUGCCGGUACCAGGCCCGGAUAAAAGUGGAGGGGGCGG [C19A A23G], the self-cleavage is reported as 0.0964.
AACACUGCCAAUGCGGGUCCCAAGCCCGGAUGAAAGUGGAGGGGGCGG [C15G A32G] gave a self-cleavage of 0.0996.
With AACACUGCCAAUGCCGGUCCCAAUCCCGGAAAAAAGUGGAGGGGGCGG [G24U U31A] the self-cleavage was 0.113.
Variant GACACUGCCAAUGCCGGUCCCAAGUCCGGAUAAAAGUGGAGGGGGCGG [A1G C25U] has a self-cleavage of 0.222.
For AACACUGCCGAUGCCGGUCCCAAGCCCGGAUAAACGUGGAGGGGGCGG [A10G A35C], the self-cleavage was 1.17.
In the case of AACACUGCCAAUGCCGGUCCCAAGCCCGGAUAAAAGUUUAGGGGGCGG [G38U G39U], the self-cleavage is reported as 0.0892.
For AACACUGCCAAUGCCGGUCCCAAGCCCGGAUAUAAUUGGAGGGGGCGG [A33U G36U], the self-cleavage was 0.132.
AACACUGCCAAUGCCGGGCCCAAGCCGGGAUAAAAGUGGAGGGGGCGG [U18G C27G] showed a self-cleavage of 0.0399.
AACACUGCCAAUGCCGGUCCCACGCUCGGAUAAAAGUGGAGGGGGCGG [A23C C26U] gave a self-cleavage of 0.0813.
In the case of GACACUGCCAAUGCCGGUCCCAAGCCCGGAUAAAAGUGGAGUGGGCGG [A1G G42U], the self-cleavage is reported as 0.187.
AACACUGCCAAUGCCGGUCCCAAUCCCGGCUAAAAGUGGAGGGGGCGG [G24U A30C] gave a self-cleavage of 0.0633.
For AACACUGCCAAUGACGGUCCCAAGCGCGGAUAAAAGUGGAGGGGGCGG [C14A C26G], the self-cleavage was 0.118.
AACACUGCCAAUGCCGGUCCCAAGCCCGUAUUAAAGUGGAGGGGGCGG [G29U A32U] showed a self-cleavage of 0.911.
For AACACUGCCAAUGCCGGUCCCAAGCCCGGUUAAAACUGGAGGGGGCGG [A30U G36C], the self-cleavage was 0.559.
AACACUCCCAAUGCGGGUCCCAAGCCCGGAUAAAAGUGGAGGGGGCGG [G7C C15G] gave a self-cleavage of 0.0181.
For AACACUGCCAAUGCCGGUCCCAAGACCGGACAAAAGUGGAGGGGGCGG [C25A U31C], the self-cleavage was 0.138.
Variant AACACUGCCAAUGCCGGUCCCGAGCCCGGAUAAAAGUGGAGGGGGCGA [A22G G48A] has a self-cleavage of 0.246.
AACAGUGCCAAUGCCGGUCCCAAGCCCGGAUAAAAGUGGAAGGGGCGG [C5G G41A] gave a self-cleavage of 0.168.
In the case of AACACGGCCAAUGCCGGUCCCAAACCCGGAUAAAAGUGGAGGGGGCGG [U6G G24A], the self-cleavage is reported as 0.0855.
Work on AACACUGCCAAUGCUGGUCCCAAGCCCGGAUAAAGGUGGAGGGGGCGG [C15U A35G] yielded a self-cleavage of 0.659.
With AACCCUGCCAAUGCCGGUCCCAAGCCCGGAUAAAAGUGGAGGGGGCGC [A4C G48C] the self-cleavage was 0.31.
AACACCGCCAAUUCCGGUCCCAAGCCCGGAUAAAAGUGGAGGGGGCGG [U6C G13U] showed a self-cleavage of 0.0523.
AACACUGCGAAUGCCGGUCCCCAGCCCGGAUAAAAGUGGAGGGGGCGG [C9G A22C] showed a self-cleavage of 0.708.
In the case of AACACUGCCAAUGCCGGUCCCAAGCCCGGAUAAAAGUGGAGGGGGCUA [G47U G48A], the self-cleavage is reported as 0.819.
In the case of AACACUGCCAAUGCCGGUCCCAAGCCCGGAUAAAAGCGGAUGGGGCGG [U37C G41U], the self-cleavage is reported as 0.126.
For AACACUGCCAAUGCCGGUCCCAAGCCCGGCUAAAAGUGGAGGGGCCGG [A30C G45C], the self-cleavage was 0.266.
With AACACUGCCAAUCCCGUUCCCAAGCCCGGAUAAAAGUGGAGGGGGCGG [G13C G17U] the self-cleavage was 0.114.
AACACUGCCUAUGCCGGUCCCAAGCCGGGAUAAAAGUGGAGGGGGCGG [A10U C27G] showed a self-cleavage of 0.057.
AAUACUGCCAAUGCCGGUCCCAAGCCCGGAUAAAAGUGGAGGGGGGGG [C3U C46G] gave a self-cleavage of 0.526.
In the case of AACACUGCCAAUGGCGGUCCCAAGCCCGGAUAAAAGUGGAGUGGGCGG [C14G G42U], the self-cleavage is reported as 0.0931.
Variant AACACUGCCAAUGCCGGUCCCAAUCCCGGAUAAAAGUGGGGGGGGCGG [G24U A40G] has a self-cleavage of 0.0745.
AACGCUGCCAAUCCCGGUCCCAAGCCCGGAUAAAAGUGGAGGGGGCGG [A4G G13C] showed a self-cleavage of 0.244.
AACACUGCCAAUCCCGGUCCCAAGCCCGGAUAAAAGUGGAGAGGGCGG [G13C G42A] gave a self-cleavage of 0.12.
Work on AACACUGCCAAUGCCGGUCCCAUGCCCGGAUAAAAGUGGCGGGGGCGG [A23U A40C] yielded a self-cleavage of 0.103.
For AACACUGCCAAUGCCCGUCCCAAGCCCGGAUGAAAGUGGAGGGGGCGG [G16C A32G], the self-cleavage was 0.518.
For AACACUGCCACUGCCGGUCCCAAGCCCGGAUAAAAGUGCAGGGGGCGG [A11C G39C], the self-cleavage was 0.208.

From the RNAGym collection of RNA variant scans (doi:10.7554/elife.80360)
